From patent US20260098096A1

Target: Human CCR8 (human) (UniProt P51685)
Assay: cell-based or functional assay

Sequence of Human CCR8 (human) (P51685 whole entry): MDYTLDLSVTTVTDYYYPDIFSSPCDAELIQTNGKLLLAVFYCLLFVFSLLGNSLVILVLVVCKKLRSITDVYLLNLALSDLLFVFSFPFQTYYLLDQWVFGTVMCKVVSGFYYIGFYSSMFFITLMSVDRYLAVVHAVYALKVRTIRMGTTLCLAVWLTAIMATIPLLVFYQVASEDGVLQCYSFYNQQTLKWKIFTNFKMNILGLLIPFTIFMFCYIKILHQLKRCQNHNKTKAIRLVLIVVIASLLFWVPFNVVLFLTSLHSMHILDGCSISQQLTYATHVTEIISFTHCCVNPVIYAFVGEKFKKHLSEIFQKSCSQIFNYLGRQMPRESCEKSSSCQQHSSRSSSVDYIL

human CCL1 (from UniProt P22362 24-96) (ligand)
EC90 of chemotaxis of hCCR8 L1.2 cells: 5.84 nM
